Laboratory results: PMC8482623 (Nature structural & molecular biology, 2020)

Target: the molecule itself
Assay: crystal structure

B1: truncated mouse Bcs1 lacking the TM and Bcs1-specific domains (ΔNmBcs1, residues 151-418) (domain or fragment)
chain: not shown
stoichiometry N: 7
